Measured values taken from patent US4711951A, “Therapeutically active compound and pharmaceutical composition containing the same” (priority 1981, dated 1987).

How the values were obtained:
[1] = test system: white mice (male mice of type NMRI); assay: Blood sugar level in mice after intravenous injection (anthrone method); type: in vivo; conditions: i.v.; for blood sugar level reduced to % of the normal value: in 30 minutes
Procedure: Test animals were white mice (male mice of type NMRI) having a body weight of 25±2 g. The solutions below were administrated intravenously in the tails of the mice. There were three groups of mice, in which there were three mice each. The solutions contained:
Group A: 0.5 ml 0.9% (w/v) NaCl
Group B: 0.5 ml 0.9% (w/v) NaCl and 5 ug native insulin
Group C: 0.5 ml 0.9% (w/v) NaCl 50 ug insulin-2-pyridyl disulfide derivative synthesized as above.
Blood samples were collected in micro capillary tubes from the corners of the eyes of the mice. The samples were collected 10 minutes before injection and 30, 120, 240 minutes, 7, 15 and 24 hours on injection. The anthrone method was used to determine the carbohydrate content of the samples (Burt J R; Anal Biochem, 9 (1964) p 293-302).

[2] = Determination of half-life for circulation in rabbit (superoxide dismutase activity of blood samples); type: in vivo; conditions: i.v., 1 ml of 10 mg/ml
Procedure: Test animals were white rabbits having a body weight of 2-5 kg. 1 ml native superoxide dismutase (yeast superoxide dismutase, Carlsberg Laboratories, Copenhagen, Denmark) (10 mg/ml) or 1 ml superoxide dismutase-2-pyridyl disulfide derivative (10 mg/ml) was injected intravenously into the rabbits. Both of the solutions were prepared from 0.9% (w/v) NaCl. Blood samples were collected from the ear lobes of the rabbits at the time intervals 5, 10, 20, 30, 60, 90, 120, 150, 180 and 210 minutes. The superoxide dismutase activity of the samples was determined according to Crapo J D, McCord J M and Fridovich I; Methods of Enzymology 53 (1978) p 382-393.

[3] = Half-life of circulating catalase activity in burnt rats (Clark electrode); type: in vivo, rats (Sprague Dawley); conditions: i.v., 20,000 IU, hind paws burnt 5 minutes after injection, catalase activity in blood
Procedure: (§1) Test animals were white rats (Sprague Dawley) of a body weight of 300-350 g. Two groups of rats (6 individuals each) were separately injected intravenously with 0.5 ml 0.9% (w/v) NaCl containing 20,000 international units (IU) native catalase respectively an amount of catalase-2-dipyridyl disulfide derivative (synthesized as above) corresponding to 20,000 (IU) native catalase. 5 minutes after injection hind paws of all the rats were burnt by dipping into circulating water of +55° C. for 20 seconds. 0.4 ml blood was collected from the left arteriae carotis at the time intervals 2, 15, 30, 60, 120 and 180 minutes. The catalase activity in each blood sample was determined as the amount of oxygen formed per time unit. Measurements were carried out with a Clark electrode by standard procedures.

[4] = test system: white rats (Sprague Dawley), burnt hind paws; assay: Oedema of the burn, measured as the volume of the paw; type: in vivo; conditions: i.v., amount corresponding to 20,000 IU, in 2 hours
Procedure: as §1
The oedema of the burn was measured as the volume of the paw. This volume was measured as corresponding deplacement at even time cuts during 3 hours.

insulin-2-pyridyl disulfide derivative: insulin reacted with N-succinimidyl-3-(2-pyridyldithio)-propionate (SPDP)
time until blood sugar level returned to normal values ([1]; 50 ug derivative (group C)): > 24 h
blood sugar level reduced to % of the normal value ([1]; 50 ug derivative (group C)): 40 % of the normal value

native insulin: native insulin, underivatized base compound used as comparison
time until blood sugar level reached the normal value (value before injection) ([1]; 5 ug native insulin (group B)): 7 h
blood sugar level reduced to % of the normal value ([1]; 5 ug native insulin (group B)): 40 % of the normal value

B1: native superoxide dismutase: yeast superoxide dismutase, Carlsberg Laboratories, Copenhagen, Denmark (protein, UniProt P00445 2-154, looked up)
Superoxide dismutase [Cu-Zn]: VQAVAVLKGDAGVSGVVKFEQASESEPTTVSYEIAGNSPNAERGFHIHEFGDATNGCVSAGPHFNPFKKTHGAPTDEVRHVGDMGNVKTDENGVAKGSFKDSLIKLIGPTSVVGRSVVIHAGQDDLGKGDTEESLKTGNAGPRPACGVIGLTN
half-life for circulation [2]: about 10 minutes

B2: superoxide dismutase-2-pyridyl disulfide derivative: superoxide dismutase from yeast reacted with SPDP (protein, UniProt P00445 2-154, looked up)
Superoxide dismutase [Cu-Zn]: B1 Superoxide dismutase [Cu-Zn]
modifications: SPDP 2-pyridyl disulfide derivative
notes: superoxide dismutase from yeast reacted with SPDP
half-life for circulation [2]: 60 min

B3: native catalase: catalase of bovine liver (Sigma C-100), further purified by gel filtration (protein, UniProt P00432 2-527, looked up)
Catalase: ADNRDPASDQMKHWKEQRAAQKPDVLTTGGGNPVGDKLNSLTVGPRGPLLVQDVVFTDEMAHFDRERIPERVVHAKGAGAFGYFEVTHDITRYSKAKVFEHIGKRTPIAVRFSTVAGESGSADTVRDPRGFAVKFYTEDGNWDLVGNNTPIFFIRDALLFPSFIHSQKRNPQTHLKDPDMVWDFWSLRPESLHQVSFLFSDRGIPDGHRHMNGYGSHTFKLVNANGEAVYCKFHYKTDQGIKNLSVEDAARLAHEDPDYGLRDLFNAIATGNYPSWTLYIQVMTFSEAEIFPFNPFDLTKVWPHGDYPLIPVGKLVLNRNPVNYFAEVEQLAFDPSNMPPGIEPSPDKMLQGRLFAYPDTHRHRLGPNYLQIPVNCPYRARVANYQRDGPMCMMDNQGGAPNYYPNSFSAPEHQPSALEHRTHFSGDVQRFNSANDDNVTQVRTFYLKVLNEEQRKRLCENIAGHLKDAQLFIQKKAVKNFSDVHPEYGSRIQALLDKYNEEKPKNAVHTYVQHGSHLSAREKANL
half-life for circulating catalase [3]: 9 min

B4: catalase-2-pyridyl disulfide: purified catalase of bovine liver reacted with SPDP (protein, UniProt P00432 2-527, looked up)
Catalase: B3 Catalase
modifications: SPDP 2-pyridyl disulfide derivative
notes: purified catalase of bovine liver reacted with SPDP
swelling of the burnt paws compared to native catalase [4]: significantly decreased swelling
half-life for circulating catalase [3]: 34 min
